From patent US20190241669A1 (published 2019) come the findings set out here.

Assay [1] has as its target Human BCMA (human) (UniProt Q02223). Nature of the assay: SPR, IgG immobilised, huBCMA analyte, 37 C. (Surface plasmon resonance follows binding to a sensor surface in real time, without labels.)
Assay [2] concerns the target T1, cynomolgus monkey BCMA (cynomolgus monkey, UniProt A0A2K5UD97 1-53).
T1 construct: Soluble analyte in SPR; construct not described; also called cyBCMA; Cyno BCMA
As to the kind of experiment: SPR, IgG on chip, cyBCMA analyte, 37C.

The target of assay [3] is Human BCMA (human) (UniProt Q02223). Nature of the assay: SPR, IgG on chip, huBCMA analyte.
Assay [4] concerns the target T1, cynomolgus monkey BCMA. Nature of the assay: SPR, IgG on chip, cyBCMA analyte.

A word on the Kd: it is the concentration at which binding is half-saturated. In general, koff refers to the first-order rate constant of dissociation. For orientation: kon means the rate constant with which the complex forms.

T1 sequence (A0A2K5UD97 entry or part of it): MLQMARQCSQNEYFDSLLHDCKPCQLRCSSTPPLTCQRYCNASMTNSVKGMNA

B1: L3.PY/L3.KF/H3.AQ (antibody, V domains shown)
VH: EVQLLESGGGLVQPGGSLRLSCAASGFTFGSYAMTWVRQAPGKGLEWVSAISGSGGNTFYADSVKGRFTISRDNSKNTLYLQMNSLRAEDTAVYYCARVSPIAAQMDYWGQGTLVTVSS
VL: EIVLTQSPGTLSLSPGERATLSCRASQSVSSSYLAWYQQKPGQAPRLLIYGASSRATGIPDRFSGSGSGTDFTLTISRLEPEDFAVYYCKFYPYPPSFTFGQGTKVEIK
notes: IgG
Consider B1, for which, in the assay with Human BCMA (human) [1], the equilibrium dissociation constant (Kd) was 0.65 nM, the T½ turned out to be 5.09 min, the dissociation rate constant (koff) was 0.00227 s⁻¹ and the kon was 3.48e+06 M⁻¹ s⁻¹. Besides, in the assay with cynomolgus monkey BCMA [2], the affinity, expressed as Kd, was 0.93 nM; the “T½” value came to 4.85 min; the koff worked out at 0.00238 s⁻¹; the on-rate constant (kon) turned out to be 2.55e+06 M⁻¹ s⁻¹.

B2: L3.PY/L1.AH/H3.TAQ (antibody, V domains shown)
VH: EVQLLESGGGLVQPGGSLRLSCAASGFTFGSYAMTWVRQAPGKGLEWVSAISGSGGNTFYADSVKGRFTISRDNSKNTLYLQMNSLRAEDTAVYYCTRVSPIAAQMDYWGQGTLVTVSS
VL: EIVLTQSPGTLSLSPGERATLSCRASQSVSAHYLAWYQQKPGQAPRLLIYGASSRATGIPDRFSGSGSGTDFTLTISRLEPEDFAVYYCQHYPYPPSFTFGQGTKVEIK
notes: IgG
In the assay with Human BCMA (human) [1], B2 returned a dissociation constant (Kd) of 0.37 nM, a T½ of 9.68 min, an off-rate (koff) of 0.00119 s⁻¹ and an on-rate constant (kon) of 3.27e+06 M⁻¹ s⁻¹. Besides, in the assay with cynomolgus monkey BCMA [2], the equilibrium dissociation constant (Kd) turned out to be 1.32 nM, the “T½” value was determined as 3.83 min, the off-rate constant (koff) is 0.00302 s⁻¹ and the kon came to 2.28e+06 M⁻¹ s⁻¹.

B3: L3.PY/L1.FF/H2.YQ (antibody, V domains shown)
VH: EVQLLESGGGLVQPGGSLRLSCAASGFTFGSYAMTWVRQAPGKGLEWVSAISYQGGNTFYADSVKGRFTISRDNSKNTLYLQMNSLRAEDTAVYYCARVSPIASGMDYWGQGTLVTVSS
VL: EIVLTQSPGTLSLSPGERATLSCRASQSVSSFFLAWYQQKPGQAPRLLIYGASSRATGIPDRFSGSGSGTDFTLTISRLEPEDFAVYYCQHYPYPPSFTFGQGTKVEIK
notes: IgG
Consider B3, for which, in the assay with Human BCMA (human) [1], the Kd came to 0.46 nM, the T½ came to 7.61 min, the dissociation rate constant (koff) is 0.00152 s⁻¹ and the on-rate (kon) is 3.32e+06 M⁻¹ s⁻¹. For the same molecule, in the assay with cynomolgus monkey BCMA [2], binding was put at a Kd of 1.49 nM, the “T½” value amounted to 3.55 min, the off-rate constant (koff) was 0.00326 s⁻¹ and the kon came to 2.19e+06 M⁻¹ s⁻¹.

B4: L3.PY/L1.FF/H3.TAQ (antibody, V domains shown)
VH: EVQLLESGGGLVQPGGSLRLSCAASGFTFGSYAMTWVRQAPGKGLEWVSAISGSGGNTFYADSVKGRFTISRDNSKNTLYLQMNSLRAEDTAVYYCTRVSPIAAQMDYWGQGTLVTVSS
VL: EIVLTQSPGTLSLSPGERATLSCRASQSVSSFFLAWYQQKPGQAPRLLIYGASSRATGIPDRFSGSGSGTDFTLTISRLEPEDFAVYYCQHYPYPPSFTFGQGTKVEIK
notes: IgG
In the assay with Human BCMA (human) [1], B4 came in with a Kd of 0.54 nM, a T½ of 6.12 min, a koff of 0.00189 s⁻¹ and an on-rate (kon) of 3.52e+06 M⁻¹ s⁻¹. In addition, in the assay with cynomolgus monkey BCMA [2], the Kd turned out to be 1.62 nM, the “T½” value stood at 3.07 min, the koff worked out at 0.00376 s⁻¹ and the kon came out at 2.32e+06 M⁻¹ s⁻¹.

B5: L3.PY/L1.FF/H2.QR (antibody, V domains shown)
VH: EVQLLESGGGLVQPGGSLRLSCAASGFTFGSYAMTWVRQAPGKGLEWVSAISGSGGNTFYADQRKGRFTISRDNSKNTLYLQMNSLRAEDTAVYYCARVSPIASGMDYWGQGTLVTVSS
VL: EIVLTQSPGTLSLSPGERATLSCRASQSVSSFFLAWYQQKPGQAPRLLIYGASSRATGIPDRFSGSGSGTDFTLTISRLEPEDFAVYYCQHYPYPPSFTFGQGTKVEIK
notes: IgG
In the assay with Human BCMA (human) [1], B5 gave a Kd of 0.51 nM, a T½ of 6.54 min, an off-rate constant (koff) of 0.00177 s⁻¹ and a kon of 3.47e+06 M⁻¹ s⁻¹. Further, in the assay with cynomolgus monkey BCMA [2], binding was put at a Kd of 1.65 nM, the “T½” value is 2.75 min, the koff stood at 0.00421 s⁻¹ and the kon is 2.55e+06 M⁻¹ s⁻¹.

B6: L3.PY/L1.FF/H3.AE (antibody, V domains shown)
VH: EVQLLESGGGLVQPGGSLRLSCAASGFTFGSYAMTWVRQAPGKGLEWVSAISGSGGNTFYADSVKGRFTISRDNSKNTLYLQMNSLRAEDTAVYYCARVSPIAAEMDYWGQGTLVTVSS
VL: EIVLTQSPGTLSLSPGERATLSCRASQSVSSFFLAWYQQKPGQAPRLLIYGASSRATGIPDRFSGSGSGTDFTLTISRLEPEDFAVYYCQHYPYPPSFTFGQGTKVEIK
notes: IgG
B6: in the assay with Human BCMA (human) [1], the equilibrium dissociation constant (Kd) was 0.69 nM, the T½ worked out at 4.39 min, the koff was 0.00263 s⁻¹ and the on-rate (kon) stood at 3.82e+06 M⁻¹ s⁻¹. In the assay with cynomolgus monkey BCMA [2], binding was characterised by a dissociation constant (Kd) of 1.76 nM, the “T½” value was 2.31 min, the koff came to 0.00501 s⁻¹ and the on-rate (kon) was found to be 2.85e+06 M⁻¹ s⁻¹.

B7: L3.PY/L1.FF/H2.HA (antibody, V domains shown)
VH: EVQLLESGGGLVQPGGSLRLSCAASGFTFGSYAMTWVRQAPGKGLEWVSAISHAGGNTFYADSVKGRFTISRDNSKNTLYLQMNSLRAEDTAVYYCARVSPIASGMDYWGQGTLVTVSS
VL: EIVLTQSPGTLSLSPGERATLSCRASQSVSSFFLAWYQQKPGQAPRLLIYGASSRATGIPDRFSGSGSGTDFTLTISRLEPEDFAVYYCQHYPYPPSFTFGQGTKVEIK
notes: IgG
In the assay with Human BCMA (human) [1], B7 returned a dissociation constant (Kd) of 0.63 nM, a T½ of 5.29 min, an off-rate (koff) of 0.00219 s⁻¹ and a kon of 3.49e+06 M⁻¹ s⁻¹. In the assay with cynomolgus monkey BCMA [2], the dissociation constant Kd is 1.79 nM, the “T½” value amounted to 2.77 min, the koff is 0.00417 s⁻¹ and the kon worked out at 2.33e+06 M⁻¹ s⁻¹.

B8: L3.PY/L1.FF/H2.LT (antibody, V domains shown)
VH: EVQLLESGGGLVQPGGSLRLSCAASGFTFGSYAMTWVRQAPGKGLEWVSAISLTGGNTFYADSVKGRFTISRDNSKNTLYLQMNSLRAEDTAVYYCARVSPIASGMDYWGQGTLVTVSS
VL: EIVLTQSPGTLSLSPGERATLSCRASQSVSSFFLAWYQQKPGQAPRLLIYGASSRATGIPDRFSGSGSGTDFTLTISRLEPEDFAVYYCQHYPYPPSFTFGQGTKVEIK
notes: IgG
Turning to B8, in the assay with Human BCMA (human) [1], the dissociation constant Kd was found to be 0.51 nM, the T½ is 6.92 min, the off-rate constant (koff) stood at 0.00167 s⁻¹ and the association rate constant (kon) turned out to be 3.3e+06 M⁻¹ s⁻¹. Moreover, in the assay with cynomolgus monkey BCMA [2], the affinity, expressed as Kd, was 1.56 nM; the “T½” value was found to be 3.38 min; the off-rate constant (koff) came to 0.00341 s⁻¹; the kon turned out to be 2.19e+06 M⁻¹ s⁻¹.

B9: L3.PY/L1.FF/H2.QL (antibody, V domains shown)
VH: EVQLLESGGGLVQPGGSLRLSCAASGFTFGSYAMTWVRQAPGKGLEWVSAISGSGGNTFYADQLKGRFTISRDNSKNTLYLQMNSLRAEDTAVYYCARVSPIASGMDYWGQGTLVTVSS
VL: EIVLTQSPGTLSLSPGERATLSCRASQSVSSFFLAWYQQKPGQAPRLLIYGASSRATGIPDRFSGSGSGTDFTLTISRLEPEDFAVYYCQHYPYPPSFTFGQGTKVEIK
notes: IgG
In the assay with Human BCMA (human) [1], B9 yielded an equilibrium dissociation constant (Kd) of 0.4 nM, a T½ of 8.28 min, an off-rate (koff) of 0.0014 s⁻¹ and a kon of 3.48e+06 M⁻¹ s⁻¹. Besides, in the assay with cynomolgus monkey BCMA [2], the Kd came to 1.91 nM, the “T½” value stood at 2.57 min, the off-rate (koff) is 0.00449 s⁻¹ and the kon was 2.36e+06 M⁻¹ s⁻¹.

B10: L3.PY/L1.FF/H2.DY (antibody, V domains shown)
VH: EVQLLESGGGLVQPGGSLRLSCAASGFTFGSYAMTWVRQAPGKGLEWVSAIDYSGGNTFYADSVKGRFTISRDNSKNTLYLQMNSLRAEDTAVYYCARVSPIASGMDYWGQGTLVTVSS
VL: EIVLTQSPGTLSLSPGERATLSCRASQSVSSFFLAWYQQKPGQAPRLLIYGASSRATGIPDRFSGSGSGTDFTLTISRLEPEDFAVYYCQHYPYPPSFTFGQGTKVEIK
notes: IgG
As to B10, in the assay with Human BCMA (human) [1], the Kd is 0.65 nM, the T½ is 4.27 min, the koff stood at 0.00271 s⁻¹ and the on-rate (kon) is 4.14e+06 M⁻¹ s⁻¹. Moreover, in the assay with cynomolgus monkey BCMA [2], the affinity, expressed as Kd, was 1.88 nM; the “T½” value turned out to be 2.31 min; the koff came out at 0.005 s⁻¹; the kon was determined as 2.66e+06 M⁻¹ s⁻¹.

B11: L3.PY/L1.FF/H3.AQ (antibody, V domains shown)
VH: EVQLLESGGGLVQPGGSLRLSCAASGFTFGSYAMTWVRQAPGKGLEWVSAISGSGGNTFYADSVKGRFTISRDNSKNTLYLQMNSLRAEDTAVYYCARVSPIAAQMDYWGQGTLVTVSS
VL: EIVLTQSPGTLSLSPGERATLSCRASQSVSSFFLAWYQQKPGQAPRLLIYGASSRATGIPDRFSGSGSGTDFTLTISRLEPEDFAVYYCQHYPYPPSFTFGQGTKVEIK
notes: IgG
Consider B11, for which, in the assay with Human BCMA (human) [1], the equilibrium dissociation constant (Kd) amounted to 0.46 nM, the T½ was 7.51 min, the off-rate (koff) was 0.00154 s⁻¹ and the kon was 3.32e+06 M⁻¹ s⁻¹. In the assay with cynomolgus monkey BCMA [2], the equilibrium dissociation constant (Kd) was 1.51 nM, the “T½” value was 3.51 min, the off-rate constant (koff) is 0.00329 s⁻¹ and the kon turned out to be 2.18e+06 M⁻¹ s⁻¹.

B12: A02_Rd4_0.6nM_C18 (antibody, V domains shown)
VH: EVQLLESGGGLVQPGGSLRLSCAASGFTFSSYAMNWVRQAPGKGLEWVSAVLDSGGSTYYADSVKGRFTISRDNSKNTLYLQMNSLRAEDTAVYYCARYWPMSLWGQGTLVTVSS
VL: EIVLTQSPGTLSLSPGERATLSCRASQSVSELYLAWYQQKPGQAPRLLMYDASIRATGIPDRFSGSGSGTDFTLTISRLEPEDFAVYYCQQYFGWPLTFGQGTKVEIK
notes: IgG
In the assay with Human BCMA (human) [3], B12 came in with a Kd of 0.048 nM, a koff of 0.000229 s⁻¹ and a kon of 4.73e+06 M⁻¹ s⁻¹. Moreover, in the assay with cynomolgus monkey BCMA [4], the equilibrium dissociation constant (Kd) turned out to be 0.197 nM, the koff amounted to 0.000639 s⁻¹ and the on-rate constant (kon) was found to be 3.24e+06 M⁻¹ s⁻¹.

B13: COMBO_Rd4_0.6nM_C22 (antibody, V domains shown)
VH: EVQLLESGGGLVQPGGSLRLSCAASGFTFSSYAMNWVRQAPGKGLEWVSAISDSGGSRWYADSVKGRFTISRDNSKNTLYLQMNSLRAEDTAVYYCTRYWPMDIWGQGTLVTVSS
VL: EIVLTQSPGTLSLSPGERATLSCRASVRVSSTYLAWYQQKPGQAPRLLMYDASIRATGIPDRFSGSGSGTDFTLTISRLEPEDFAVYYCQQYMKWPLTFGQGTKVEIK
notes: IgG; also called COM22
Turning to B13, in the assay with Human BCMA (human) [3], the Kd is 0.036 nM, the dissociation rate constant (koff) was 7.15e-05 s⁻¹ and the association rate constant (kon) came out at 1.97e+06 M⁻¹ s⁻¹. In the assay with cynomolgus monkey BCMA [4], this molecule came in with an equilibrium dissociation constant (Kd) of 0.05 nM, an off-rate (koff) of 6.66e-05 s⁻¹ and a kon of 1.34e+06 M⁻¹ s⁻¹.
